Numbering of substitutions follows the chain as printed. Names and notes keep the numbering of the source.
B1: G103R: full-length murine PDZD7-GFP carrying G103R variant (protein, UniProt E9Q9W7 1-1021, looked up, variant G103R)
chain: MARGFTVGFDPLGLGELSSGSLSSVSSRGHLGSDSGSTATRYLLRKQQRLLNGPSRGIRASSPMGRVILINSPIEANSDESDIIHAVRVEKSPSGRLGFSVRRGSEHGLGIFVSKVEEGSSAERAGLCVGDKITEVNGLSLESTTMGSAVRLLTSSSCLHMMVRRMGRVPGIKFSKEKTTWVDVVNRRLVVEKCSSTPSDRSSEDGVRRIVHLYTTSDDFCLGFNIRGGKEFGLGIYVSKVDHGGLAEENGIKVGDQVLAANGVRFDDISHSQAVEVLKGQTHIMLTIKETGRYPAYKEMVSEYCWLDRLSNGVLQQLSPASESSSSVSSYASSAPCSSGSLPSDRMDVCLGPEEPTSHGPGWGRADTAMQTEPDLDSRVETWCSVRPTVILRDTAIRSDGPSSTRHLDSALSESPKTALLLALSRPRTPITRSQSHLTLWEEKKQRKKEKSGSSGEKGALQRSKTLMNLFFKGGRQGRPAGDGHREAWTLDSRSPTKVRPRLDLEKAGSVGPVQKFVTWRLRRDRERGRALLSARSGSPSGQAPTVNEQVQAWESRRPLIQDLARRLLTDDEVLAVTRHCSRYVHEGGVEDLVRPLLAILDRPTKLLLLRDIRSVVAPTDLGRFDSMVMPVELEAFEALKSRAVGPSALRPTRQDTPPKRHLITPVPDSRGGFYLLPVNSSEDEDGEIREKLGVLKVSLGASAPHHKGIPPLQDVPVDAFSLRRGACAPPPQPPPVAPRPPRPNWLLTEPLSREDTQQNQSQTPAQSCSRSRSRSRSRSHSRGQGKSPGRRRSPSPAPIATAATANGRYHRPRKARPLLPRLLDGQVAKVGARQGPLENGRIAEEAVGNVSTGALRTITLSKMKQSLGISISGGIESKVQPMVKIEKIFPGGAAFLCGDLQAGFELVAVDGESLEQVTHQRAVDTIRRAYRNKAREPMELVVRVPGPGLLPLASDLRVVKDQSLAPDCPSALGPVDDARILTQLPPPEARQLQQSLSSALKVPQSIPKLSPILKDPHDPS
modifications: full-length C-terminal GFP fusion
notes: full-length murine PDZD7-GFP carrying G103R variant
B2: G228R: full-length murine PDZD7-GFP carrying G228R variant (protein, UniProt E9Q9W7 1-1021, looked up, variant G228R)
chain: B1 chain with R103G, G228R
modifications: full-length C-terminal GFP fusion
notes: full-length murine PDZD7-GFP carrying G228R variant
B3: PDZ2: second PDZ of mouse PDZD7 (G206 to G292) (protein)
chain: GVRRIVHLYTTSDDFCLGFNIRGGKEFGLGIYVSKVDHGGLAEENGIKVGDQVLAANGVRFDDISHSQAVEVLKGQTHIMLTIKETG
modifications: left off: GST, N-terminal, cleaved
B4: PDZ2 G228R: PDZD7 PDZ2 carrying deafness-causing mutation G228R (protein, UniProt E9Q9W7 206-292, looked up, variant G228R)
chain: B3 chain with G23R

Columns and labels:
[1] = Degradation of PDZD7-GFP variants expressed in HeLa cells; conditions: western blot, compared to the wild-type
Protocol: HeLa cells were maintained in Dulbecco’s modified Eagle’s medium (DMEM) containing 10% fetal calf serum (FCS). PDZD7 constructs correspond to the full-length murine sequence in fusion with a N-terminal strep tag and a C-terminal GFP, wild-type or carrying G103R/G228R variants, cloned in a PMT3 vector. The ADGRV1 construct corresponds to the murine β subunit of the receptor (5884-6298) cloned in a pRK5 vector. Plasmids were transfected in separate HeLa cultures using 25 μg (PDZD7) and 10 μg (ADGRV1) of DNA per 10 cm dish using TurboFect™ Transfection Reagent (ThermoFisher Scientific) at 3 μl per μg of transfected DNA. Mixes were prepared in volumes of 1 ml/plate (in DMEM), vortexed and incubated up to 30 min at room temperature, cell media were renewed before transfection. After drop by drop addition of the transfection mix, cells were maintained at 37°C for 14 h for protein expression. […] Cells were counted, pelleted and resuspended at similar concentrations in PBS Tween 0.01%, Dodécyl-β-D-maltoside (DDM) 0.1% containing anti-proteases (buffer). […] Target proteins were detected using mouse α-GFP (LivingColors™ JL-8, Takara) and rabbit α-ADGRV1 (custom, raised against the cytoplasmic domain) antibodies (1/2000 in 5% milk TBST), as well as secondary α-mouse and α-rabbit IgG antibodies coupled to HRP (1/2000 in 5% milk TBST). […]

ADGRV1 β subunit = assay: Pull-down of ADGRV1 β subunit by full-length PDZD7-GFP from HeLa cell lysates; format: binding, murine; conditions: PDZD7-GFP bait, anti-GFP beads, 4°C 1 h, western blot, vs no bait
Protocol: HeLa cells were maintained in Dulbecco’s modified Eagle’s medium (DMEM) containing 10% fetal calf serum (FCS). PDZD7 constructs correspond to the full-length murine sequence in fusion with a N-terminal strep tag and a C-terminal GFP, wild-type or carrying G103R/G228R variants, cloned in a PMT3 vector. The ADGRV1 construct corresponds to the murine β subunit of the receptor (5884-6298) cloned in a pRK5 vector. Plasmids were transfected in separate HeLa cultures using 25 μg (PDZD7) and 10 μg (ADGRV1) of DNA per 10 cm dish using TurboFect™ Transfection Reagent (ThermoFisher Scientific) at 3 μl per μg of transfected DNA. Mixes were prepared in volumes of 1 ml/plate (in DMEM), vortexed and incubated up to 30 min at room temperature, cell media were renewed before transfection. After drop by drop addition of the transfection mix, cells were maintained at 37°C for 14 h for protein expression. Cells were dissociated using Gibco™ Trypsine-EDTA (0,05%), subsequently inactivated by addition of DMEM containing 10% FCS. Cells were counted, pelleted and resuspended at similar concentrations in PBS Tween 0.01%, Dodécyl-β-D-maltoside (DDM) 0.1% containing anti-proteases (buffer). Benzonase (Sigma) was added before sonication of the cells (40 mA amplitude, 10 pulses of 12 s with 18 s intervals, in ice). An identical volume of ADGRV1 β transfected cell lysate was mixed to either PDZD7 WT, G103R or G228R transfected cell lysates. PDZ proteins have different expression levels, meaning that different amounts of sample are needed to saturate the dynabeads with the PDZ proteins. Pull down experiments have been performed several times allowing us to estimate the yield of expression of each PDZ construct for a given amount of cells. […] Target proteins were detected using mouse α-GFP (LivingColors™ JL-8, Takara) and rabbit α-ADGRV1 (custom, raised against the cytoplasmic domain) antibodies (1/2000 in 5% milk TBST), as well as secondary α-mouse and α-rabbit IgG antibodies coupled to HRP (1/2000 in 5% milk TBST). […]

[2] = Aggregation / sample stability of purified PDZ2 constructs; format: physicochemical
From the text: The biochemical behavior of PDZD7 PDZ2 drastically differs from PDZ1, with or without its C-terminal extension. […] In order to further establish the accessible folding states of the PDZ2 extension, we used the same metadynamics approach as for PDZ1ext and probed its conformational energy landscape (Figure 3C).

Row | Molecule | degradation [1] | binding of ADGRV1 β subunit (pull-down) (ADGRV1 β subunit) | sample stability ([2]; 15N-labelled PDZ2 constructs, NMR) | aggregation ([2]; at temperatures higher than 15 °C, despite extensive screening of buffer conditions) | aggregation ([2]; during biophysical experiments, low yield)
1 | B1 | higher tendency for degradation | a decrease of ADGRV1 quantity bound to the beads was observed in comparison with wild-type PDZD7, similar to the experiment performed without bait | – | – | –
2 | B2 | higher tendency for degradation | a decrease of ADGRV1 quantity bound to the beads was observed in comparison with wild-type PDZD7, similar to the experiment performed without bait | – | – | –
3 | B3 | – | – | stable for a few hours only | Rapid aggregation | –
4 | B4 | – | – | – | – | severe aggregation

From article PMC9274004, “Deciphering the Molecular Interaction Between the Adhesion G Protein-Coupled Receptor ADGRV1 and its PDZ-Containing Regulator PDZD7” (Frontiers in Molecular Biosciences, 2022)
